± gives the standard deviation.

These results are taken from the supplement of paper PMC10567573.

A short description of the series: protein stability index of a GFP-peptide fusion (GPS, HEK-293T) (PSI 1-6); higher = more stable. Conditions: c terminus: a fixed tail appended.
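Further: 24-mer peptide tiles fused after GFP, lentivirally expressed, FACS-sorted into six equal bins by GFP/DsRed ratio, decoded by Illumina sequencing, PSI is the read-weighted mean bin number.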

LRIRSVEGRKKAFSTCGSHLTVVA [OR3A1]: the protein stability index (treatment: DMSO) was determined as 2.43 ± 0.42 and the protein stability index (treatment: MLN4924 1 uM, 8 h) was determined as 2.2 ± 0.47.

In the case of ENTIAGANHTHTFYGHSHHSHHGH [C10orf62], the protein stability index by setting is: (treatment: DMSO) 3.58 ± 0.25; (treatment: MLN4924 1 uM, 8 h) 3.78 ± 0.23.

In the case of EIILYWKHSTIFDVGENLTVPDEF [SLC25A25], the protein stability index amounted to 2.23 ± 0.85 (treatment: DMSO) and 2.1 ± 0.39 (treatment: MLN4924 1 uM, 8 h).

For the sequence QKLEREARICRLLKHPNIVRLHDS [CAMK2A], the protein stability index (treatment: DMSO) is 2.5 ± 0.13 and the protein stability index (treatment: MLN4924 1 uM, 8 h) was found to be 2.72 ± 0.17.

In the case of EVDSGRQIEYEYKLAQALHEMREQ [LMNB1], the protein stability index runs as follows: (treatment: DMSO) 4.51 ± 0.23; (treatment: MLN4924 1 uM, 8 h) 4.43 ± 0.23.

As to TAAVLGLICEGLYPASIVDEPTFK [ZBED1], the protein stability index is, setting by setting: (treatment: DMSO) 2.17 ± 0.26; (treatment: MLN4924 1 uM, 8 h) 2.19 ± 0.6.

Take HVYIGSAGLDWQSLGQMKELGVIF [PLD5]: the protein stability index runs as follows: (treatment: DMSO) 2.49 ± 0.71; (treatment: MLN4924 1 uM, 8 h) 2.58 ± 1.1.

Take QTEKTTRVRTVLNEKQLHTLRTCY [ISL2]: the protein stability index runs as follows: (treatment: DMSO) 2.66 ± 0.24; (treatment: MLN4924 1 uM, 8 h) 2.8 ± 0.33.

Turning to ADILAGREDNSGSDVLIGDILVLL [SLC35F2], the protein stability index runs as follows: (treatment: DMSO) 2.48 ± 0.26; (treatment: MLN4924 1 uM, 8 h) 2.43 ± 0.18.

Sequence IRKERKRLKLMQQNPAGELEGFQA [ATE1] returned a protein stability index (treatment: DMSO) of 3.87 ± 0.65 and a protein stability index (treatment: MLN4924 1 uM, 8 h) of 3.76 ± 0.32.

Regarding GLAYDRKKVSKAAILARIKRTGDG [SCD], the protein stability index came out at 3.27 ± 0.24 (treatment: DMSO) and 3.63 ± 0.35 (treatment: MLN4924 1 uM, 8 h).

Turning to TLEQEQEALVNRLWKRMDKLEAEK [CCDC6], the protein stability index by setting is: (treatment: DMSO) 4.42 ± 0.22; (treatment: MLN4924 1 uM, 8 h) 4.52 ± 0.17.

SGADFHKKDKCGRTPLHYAAANCH [ANKRD44] displayed a protein stability index (treatment: DMSO) of 3.42 ± 0.44 and a protein stability index (treatment: MLN4924 1 uM, 8 h) of 3.32 ± 0.27.

In turn, IFAGVHDEKAKPRDRQQAPGLGQE [TLE6] gave a protein stability index (treatment: DMSO) of 4.73 ± 0.2 and a protein stability index (treatment: MLN4924 1 uM, 8 h) of 4.81 ± 0.065.

On to LLTVTATDRDEGANGEVTYSFRKL [PCDHGA10], for which the protein stability index worked out at 4.1 ± 0.26 (treatment: DMSO) and 4.15 ± 0.33 (treatment: MLN4924 1 uM, 8 h).

With MDDQGCPRCKTTKYRNPSLKLMVN [MNAT1], the protein stability index (treatment: DMSO) came to 2.8 ± 0.16 and the protein stability index (treatment: MLN4924 1 uM, 8 h) is 3.21 ± 0.22.

For the sequence LEPLKAIIQYRLPMKKNNNLYSWD [ACSBG2], the protein stability index (treatment: DMSO) is 2.57 ± 0.47 and the protein stability index (treatment: MLN4924 1 uM, 8 h) is 2.17 ± 0.2.

The sequence TCGGGVQFSSRDCTRPVPRNGGKY [ADAMTS4] returned a protein stability index (treatment: DMSO) of 4.19 ± 0.33 and a protein stability index (treatment: MLN4924 1 uM, 8 h) of 3.94 ± 0.65.

Regarding FTRSQTLIQNGGEIDCVDKDGNTP [ANKRD44], the protein stability index reads like this: (treatment: DMSO) 4.74 ± 0.16; (treatment: MLN4924 1 uM, 8 h) 4.81 ± 0.21.

Take QDDLTVVLNEEGICTQKCALNWTD [VPS39]: the protein stability index was 4.04 ± 0.49 (treatment: DMSO) and 4 ± 0.67 (treatment: MLN4924 1 uM, 8 h).

Regarding KLRLFDTPHTPKSLLSKARGIDSS [WEE1], the protein stability index (treatment: DMSO) came out at 3.19 ± 0.092 and the protein stability index (treatment: MLN4924 1 uM, 8 h) amounted to 3.26 ± 0.32.

Sequence AVPKFMKRIKVPDYKDRSVFGVPL [DLC1] yielded a protein stability index (treatment: DMSO) of 2.33 ± 0.15 and a protein stability index (treatment: MLN4924 1 uM, 8 h) of 2.4 ± 0.25.

WENRHEGVFKFLRSEAVAQLWGQK [ELF3]: the protein stability index amounted to 2.43 ± 0.32 (treatment: DMSO) and 2.67 ± 0.35 (treatment: MLN4924 1 uM, 8 h).

Consider ERLTKQEKRPLFLAPDFDRWLDES [HACD3], for which the protein stability index was 3.87 ± 0.21 (treatment: DMSO) and 3.93 ± 0.38 (treatment: MLN4924 1 uM, 8 h).

Take LLRRDLGVGTSMEGASPLSERCQR [FANCE]: the protein stability index was found to be 4.01 ± 0.15 (treatment: DMSO) and 4.17 ± 0.083 (treatment: MLN4924 1 uM, 8 h).

In the case of EVRSKAEEVVSFVKKNVLVTGGFF [FUNDC2], the protein stability index reads like this: (treatment: DMSO) 2.17 ± 0.37; (treatment: MLN4924 1 uM, 8 h) 2.25 ± 0.34.

Turning to IVDPTTGKRYCRGKVLGKGGFAKC [PLK2], the protein stability index reads like this: (treatment: DMSO) 2.63 ± 0.38; (treatment: MLN4924 1 uM, 8 h) 2.92 ± 0.16.

Consider SLRSIEQKYKLFQQQQLTFTAALE [SPACA9], for which the protein stability index reads like this: (treatment: DMSO) 2.6 ± 0.34; (treatment: MLN4924 1 uM, 8 h) 2.73 ± 0.35.

Regarding YDQQIWEKSIEQTQIKGLKNKPKK [PHTF1], the protein stability index by setting is: (treatment: DMSO) 4.9 ± 0.093; (treatment: MLN4924 1 uM, 8 h) 5.17 ± 0.083.

For EAAGVVVEEELFHQQGTPRASNRS [LMNB1], the protein stability index runs as follows: (treatment: DMSO) 5.31 ± 0.41; (treatment: MLN4924 1 uM, 8 h) 5.47 ± 0.14.

With ICNNKWFTDTSIILFLNKKDLFEE [GNAI1], the protein stability index was 3.06 ± 0.97 (treatment: DMSO) and 2.83 ± 0.45 (treatment: MLN4924 1 uM, 8 h).

ESTELMTHLEAQNRIKGCHDHLTL [PDLIM4]: the protein stability index came to 3.83 ± 0.13 (treatment: DMSO) and 3.88 ± 0.15 (treatment: MLN4924 1 uM, 8 h).

On to EALNERHSIINALKAKLQMTEAAL [LRRC45], for which the protein stability index by setting is: (treatment: DMSO) 2.66 ± 0.2; (treatment: MLN4924 1 uM, 8 h) 2.91 ± 0.3.

For CMWSKKCSGVACLVKDNPQRSYFL [WASL], the protein stability index reads like this: (treatment: DMSO) 2.26 ± 0.29; (treatment: MLN4924 1 uM, 8 h) 2.04 ± 0.27.

For the sequence STPLTATPGGRGDMKYGIYAVENE [VTI1B], the protein stability index was 4.53 ± 0.19 (treatment: DMSO) and 4.42 ± 0.22 (treatment: MLN4924 1 uM, 8 h).

In turn, GYQLSDHTVGVLFNNGAHMSLLPD [PLK2] had a protein stability index (treatment: DMSO) of 3.08 ± 0.2 and a protein stability index (treatment: MLN4924 1 uM, 8 h) of 3.14 ± 0.081.

Take INKEELEGNSMRCGRKLAKDGEYC [GMCL1]: the protein stability index by setting is: (treatment: DMSO) 4.04 ± 0.36; (treatment: MLN4924 1 uM, 8 h) 4.15 ± 0.49.

Sequence ALDKQHSRDSAAITHSTYSLPASS [NOL4L] had a protein stability index (treatment: DMSO) of 4.57 ± 0.065 and a protein stability index (treatment: MLN4924 1 uM, 8 h) of 4.5 ± 0.065.

RPTSCWQLDWDELETNQQHFHALC [M1AP] had a protein stability index (treatment: DMSO) of 2.39 ± 0.21 and a protein stability index (treatment: MLN4924 1 uM, 8 h) of 2.77 ± 0.38.

As to GAYDFPSPEWDTVTPEAKDLINKM [CAMK2D], the protein stability index (treatment: DMSO) turned out to be 4.536 ± 0.038 and the protein stability index (treatment: MLN4924 1 uM, 8 h) worked out at 4.07 ± 0.093.

Regarding QSQLICILKRRSDEALERCQILEL [CCDC89], the protein stability index was found to be 2.52 ± 0.14 (treatment: DMSO) and 2.04 ± 0.44 (treatment: MLN4924 1 uM, 8 h).

Turning to SQHRRIHSGEKPFICKECGKAYGW [ZNF232], the protein stability index is, setting by setting: (treatment: DMSO) 2.67 ± 0.27; (treatment: MLN4924 1 uM, 8 h) 2.97 ± 0.64.

As for KETELPFPKQILDQNNVIENEETG [MIA2], the protein stability index (treatment: MLN4924 1 uM, 8 h) amounted to 5.09 ± 0.62.

As for GGGGAPRGRYGPPSRRSENRVVVS [SRSF1], the protein stability index (treatment: DMSO) was 4.36 ± 0.16 and the protein stability index (treatment: MLN4924 1 uM, 8 h) turned out to be 4.29 ± 0.12.

Turning to TVGDLGIVRRRSRDVPESPQHAAD [YJU2B], the protein stability index by setting is: (treatment: DMSO) 5.08 ± 0.25; (treatment: MLN4924 1 uM, 8 h) 5.3 ± 0.17.

Regarding PGPGSGPGSGPGHGSGSHPGPASG [SPAG8], the protein stability index is 5.08 ± 0.3 (treatment: DMSO) and 4.97 ± 0.26 (treatment: MLN4924 1 uM, 8 h).

For the sequence MRDRHVNMHLNLRPFDCPVCNKKF [ZBTB22], the protein stability index by setting is: (treatment: DMSO) 2.99 ± 0.32; (treatment: MLN4924 1 uM, 8 h) 3.44 ± 0.55.

As for KSGPGDGFFSSAFQARLSGNNLHN [POMT2], the protein stability index by setting is: (treatment: DMSO) 3.04 ± 0.096; (treatment: MLN4924 1 uM, 8 h) 2.95 ± 0.41.

For the sequence LSLLVHNVSVMHKSLDNMPNDEHW [FBXO33], the protein stability index stood at 2.36 ± 0.31 (treatment: DMSO) and 2.4 ± 0.14 (treatment: MLN4924 1 uM, 8 h).

Consider QFTAWPDHGVPEHPTPFLAFLRRV [PTPRD], for which the protein stability index is 2.44 ± 0.2 (treatment: DMSO) and 2.76 ± 0.26 (treatment: MLN4924 1 uM, 8 h).

Regarding PSVPCTPAPQVGTQIRTITEEIRD [KRT36], the protein stability index was found to be 5.07 ± 0.36 (treatment: DMSO) and 5.22 ± 0.24 (treatment: MLN4924 1 uM, 8 h).

On to DTSFLPDRDREEEENRLREELRQE [FAM50A], for which the protein stability index (treatment: DMSO) turned out to be 5.17 ± 0.31 and the protein stability index (treatment: MLN4924 1 uM, 8 h) is 5.41 ± 0.18.

LENTYRDFWLMVWEQKVLVIVMTT [PTPN9]: the protein stability index (treatment: DMSO) came out at 2.36 ± 0.7 and the protein stability index (treatment: MLN4924 1 uM, 8 h) was found to be 2.59 ± 0.6.
